Test results taken from patent US20060211042A1 (Johns Hopkins, published 2006).

Target: T1, rEAAT3/EAAC1 (rat excitatory amino acid transporter 3), full length, expressed in HEK 293T cells (rat, UniProt P51907 1-523)
T1 sequence (looked up): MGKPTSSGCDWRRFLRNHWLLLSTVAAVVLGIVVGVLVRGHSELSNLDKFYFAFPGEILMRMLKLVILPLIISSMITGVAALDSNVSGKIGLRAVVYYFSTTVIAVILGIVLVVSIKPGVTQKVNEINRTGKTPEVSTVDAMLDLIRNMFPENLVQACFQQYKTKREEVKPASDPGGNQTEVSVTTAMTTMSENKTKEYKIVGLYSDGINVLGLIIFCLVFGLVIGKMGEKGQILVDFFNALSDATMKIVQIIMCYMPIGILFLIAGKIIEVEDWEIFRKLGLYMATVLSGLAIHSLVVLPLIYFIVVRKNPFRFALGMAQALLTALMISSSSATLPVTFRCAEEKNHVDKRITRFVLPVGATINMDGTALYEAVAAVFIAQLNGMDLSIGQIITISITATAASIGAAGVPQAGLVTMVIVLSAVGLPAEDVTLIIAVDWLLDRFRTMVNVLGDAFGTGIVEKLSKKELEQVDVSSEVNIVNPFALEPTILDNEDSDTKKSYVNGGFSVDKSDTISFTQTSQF
Assay: cell-based or functional assay

B1: GTRAP3-18 (Glutamate Transporter Associated Protein of EAAT3), HA-tagged, expressed in HEK 293T cells (other, not shown: small tags and cut ends)
chain: MDVNLAPLRAWDDFFPGSDRFARPDFRDISKWNNRVVSNLLYYQTNYLVVAAMMISVVGFLSPFNMILGGIIVVLVFTGFVWAAHNKDILRRMKKQYPTAFVMVVMLASYFLISMFGGVMVFVFGITFPLLLMFIHASLRLRNLKNKLENKMEGIGLKKTPMGIILDALEQQEDSINKFADYISKARE
- decrease in Na+-dependent L-[3H]-glutamate uptake in HEK 293T cells, co-transfection at equal ratio: ~20%
